The record followed here is publication PMC10942606.

Holding throughout (assay): EMSA
For orientation: A gel shift assay detects complexes by their altered migration in electrophoresis.

One series addresses T1, Pcf1_WHD (Schizosaccharomyces pombe, UniProt Q1MTN9 471-544).
T1 sequence: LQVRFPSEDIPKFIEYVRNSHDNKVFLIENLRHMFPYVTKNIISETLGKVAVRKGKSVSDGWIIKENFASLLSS

The target in series [1] is Pcf1-ΔWHD;Pcf2;Pcf3;SpPCNA (Schizosaccharomyces …, UniProt Q1MTN9;O13985;Q9Y825;Q03392 1-470;1-512;1-408;1-260, del471-544|||).
Sequence of Pcf1-ΔWHD;Pcf2;Pcf3;SpPCNA (Q03392 whole entry, stated change not applied, one chain of several): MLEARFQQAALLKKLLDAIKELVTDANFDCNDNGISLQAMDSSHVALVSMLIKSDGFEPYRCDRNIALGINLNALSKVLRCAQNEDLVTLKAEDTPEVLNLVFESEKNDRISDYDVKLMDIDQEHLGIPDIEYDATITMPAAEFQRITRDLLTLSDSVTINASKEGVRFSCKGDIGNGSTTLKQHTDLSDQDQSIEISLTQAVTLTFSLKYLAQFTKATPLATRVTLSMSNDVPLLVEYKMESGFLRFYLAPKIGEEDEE
Another series has as its target Pcf1 WT;Pcf2;Pcf3;SpPCNA (Schizosaccharomyces …, UniProt Q1MTN9;O13985;Q9Y825;Q03392 1-544;1-512;1-408;1-260, |||).
Another series has as its target T2, Pcf1 WT;Pcf2;Pcf3 (Schizosaccharomyces …, UniProt Q1MTN9;O13985;Q9Y825 1-544;1-512;1-408, ||).
T2 sequence 1: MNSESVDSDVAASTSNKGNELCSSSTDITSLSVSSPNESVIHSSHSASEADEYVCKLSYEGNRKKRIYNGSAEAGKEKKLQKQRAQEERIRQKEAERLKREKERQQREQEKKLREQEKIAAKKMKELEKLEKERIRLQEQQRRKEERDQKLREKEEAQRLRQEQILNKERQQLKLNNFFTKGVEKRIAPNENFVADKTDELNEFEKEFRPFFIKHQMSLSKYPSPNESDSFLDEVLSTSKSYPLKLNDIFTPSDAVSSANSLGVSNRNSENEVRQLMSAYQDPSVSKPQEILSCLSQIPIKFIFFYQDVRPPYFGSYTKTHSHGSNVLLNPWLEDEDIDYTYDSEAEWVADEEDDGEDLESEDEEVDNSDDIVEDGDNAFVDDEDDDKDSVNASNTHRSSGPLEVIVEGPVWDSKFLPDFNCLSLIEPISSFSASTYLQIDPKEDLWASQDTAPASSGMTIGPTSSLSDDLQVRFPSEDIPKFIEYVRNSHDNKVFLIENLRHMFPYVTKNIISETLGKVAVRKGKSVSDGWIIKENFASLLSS
T2 sequence 2: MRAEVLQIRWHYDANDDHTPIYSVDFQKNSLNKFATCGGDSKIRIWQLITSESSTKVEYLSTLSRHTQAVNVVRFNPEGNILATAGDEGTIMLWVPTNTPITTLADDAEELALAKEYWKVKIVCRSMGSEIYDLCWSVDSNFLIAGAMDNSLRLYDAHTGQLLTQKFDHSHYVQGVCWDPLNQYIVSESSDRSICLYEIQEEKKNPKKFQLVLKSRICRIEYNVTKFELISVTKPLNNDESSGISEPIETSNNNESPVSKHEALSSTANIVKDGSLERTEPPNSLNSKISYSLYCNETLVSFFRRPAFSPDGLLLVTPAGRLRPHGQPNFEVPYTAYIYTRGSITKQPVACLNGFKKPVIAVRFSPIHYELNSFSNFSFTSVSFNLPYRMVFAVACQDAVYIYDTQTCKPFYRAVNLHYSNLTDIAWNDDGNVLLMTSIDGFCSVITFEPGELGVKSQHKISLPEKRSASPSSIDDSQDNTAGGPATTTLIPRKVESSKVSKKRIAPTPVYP
T2 sequence 3: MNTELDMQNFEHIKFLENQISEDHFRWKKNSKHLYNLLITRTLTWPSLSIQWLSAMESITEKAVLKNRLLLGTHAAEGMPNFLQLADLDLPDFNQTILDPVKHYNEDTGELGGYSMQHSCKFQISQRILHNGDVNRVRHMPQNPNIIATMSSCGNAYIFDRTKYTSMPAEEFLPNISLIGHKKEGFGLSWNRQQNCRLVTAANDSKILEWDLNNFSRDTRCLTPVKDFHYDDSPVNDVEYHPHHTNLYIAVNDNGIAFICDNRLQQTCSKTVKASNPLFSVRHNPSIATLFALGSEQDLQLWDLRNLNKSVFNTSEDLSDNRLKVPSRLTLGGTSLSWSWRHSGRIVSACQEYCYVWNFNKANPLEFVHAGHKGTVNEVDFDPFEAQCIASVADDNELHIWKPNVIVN

Sequence of Pcf1 WT;Pcf2;Pcf3;SpPCNA (Q03392 whole entry, one chain of several): as the sequence (Q03392 whole entry, stated change not applied, one chain of several) above

B1: 40 bp dsDNA (dsDNA)
DNA 1: ATCAATATCCACCTGCAGATACTACCAAAAGTGTATTTGG
DNA 2: CCAAATACACTTTTGGTAGTATCTGCAGGTGGATATTGAT
B1: the binding result with Pcf1_WHD is recorded as “no binding”; in series [1] it was “binds”; with Pcf1 WT;Pcf2;Pcf3;SpPCNA, “binds”. Further, in the series with Pcf1 WT;Pcf2;Pcf3, the “apparent K (half saturation)” value turned out to be 3.4 ± 0.4 µM.
